Results on five proteins are retold here after PMC8533005.

For orientation: Km means the substrate concentration at which the rate is half of its maximum. One may read the kcat as the maximal rate divided by the concentration of active sites.

Positions count from the first letter of the chain named. Numbers in names are those of the source.

Common to all, as to assay: purified protein
Substrate in series [1]: O=S(O)(O)=S
It counts as biochemical, Saccharomyces cerevisiae.

Substrate in series [2]: O=S(O)(O)=S
The following applies: pH 7.4; 37.0 °C.

Substrate in series [3]: O=S(O)(O)=S
Type of series: biochemical, Homo sapiens. The following applies: Reaction 1, sulfur donor, fixed KCN, 300 mM HEPES pH 7.4, room temperature. The text has this:
thiosulfate:cyanide sulfurtransferase, ferric thiocyanate colorimetry, Michaelis-Menten fit on TST

The mark [4] stands for this setting: Reaction 1, sulfur donor, fixed KCN, 300 mM HEPES pH 7.4, 25 °C.

B1: RDL1 (Saccharomyces cerevisiae S288C) (protein)
chain: MWKAVMNAWNGTESQSKNVSNIQSYSFEDMKRIVGKHDPNVVLVDVREPSEYSIVHIPASINVPYRSHPDAFALDPLEFEKQIGIPKPDSAKELIFYCASGKRGGEAQKVASSHGYSNTSLYPGSMNDWVSHGGDKLDL
As to B1, the Km in series [1] (pH 7.4) is listed as 4.0 ± 0.4 mM.

B2: TST (Homo sapiens; T253V) (protein)
chain: MVHQVLYRALVSTKWLAESIRTGKLGPGLRVLDASWYSPGTREARKEYLERHVPGASFFDIEECRDTASPYEMMLPSEAGFAEYVGRLGISNHTHVVVYDGEHLGSFYAPRVWWMFRVFGHRTVSVLNGGFRNWLKEGHPVTSEPSRPEPAVFKATLDRSLLKTYEQVLENLESKRFQLVDSRSQGRFLGTEPEPDAVGLDSGHIRGAVNMPFMDFLTEDGFEKGPEELRALFQTKKVDLSQPLIATCRKGVVACHVALAAYLCGKPDVAVYDGSWSEWFRRAPPESRVSQGKSEKA
Take B2: in series [2], the Km stood at 2.43 ± 0.70 mM and the kcat is 0.025 s⁻¹.

B3: TST (Homo sapiens) (protein)
chain: B2 chain with V253T
notes: codon-optimized synthetic gene, pET30a, E. coli BL21(DE3), Ni-NTA and size exclusion; tandem-domain rhodanese, active-site loop CRKGVT ending in Thr253
For the protein B3, in series [3], the Km was 15.68 ± 2.86 mM and the kcat turned out to be 101.73 s⁻¹.

B4: RDL2 (Saccharomyces cerevisiae S288C) (protein)
chain: MFKHSTGILSRTVSARSPTLVLRTFTTKAPKIYTFDQVRNLVEHPNDKKLLVDVREPKEVKDYKMPTTINIPVNSAPGALGLPEKEFHKVFQFAKPPHDKELIFLCAKGVRAKTAEELARSYGYENTGIYPGSITEWLAKGGADVKPKK
notes: His-tagged, pET30a, E. coli BL21(DE3), Ni-NTA and size exclusion; no firm dimer in crystal; active-site loop CAKGVR with Cys106 and Arg111
Take B4: in series [1] (setting [4]), the Km is on record as 32.5 ± 3.50 mM and the kcat was 15.32 s⁻¹.

B5: RDL2 (Saccharomyces cerevisiae S288C; K108A) (protein)
chain: B4 chain with K108A
notes: as for B4
Consider B5, for which, in series [1] (setting [4]), the Km is 93.23 ± 2.67 mM and the kcat stood at 8.71 s⁻¹.
